Results from paper PMC3083827.

Target: T1, Whn (FoxN1) DNA binding domain, WhnDBD (UniProt Q61575 271-367)
T1 sequence: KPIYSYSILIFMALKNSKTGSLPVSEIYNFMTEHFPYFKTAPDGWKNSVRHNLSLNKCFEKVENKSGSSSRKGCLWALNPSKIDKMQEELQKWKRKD
Experiment: EMSA

B1: MUT (S1P with core CG to TA) (dsDNA)
DNA 1: CTCCTCCCTGCGCGAAGCGGAAGTGATACGAGGCGTAGCGGAAGTT
DNA 2: AACTTCCGCTACGCCTCGTATCACTTCCGCTTCGCGCAGGGAGGAG
binding result: no binding
